Source: article PMC12102759 (2025)

B1: SH3BP2 peptide 408-423 (SH3 domain-binding protein 2), 16-mer library wild type / TNKS ANK (TNKS 12 ANK repeats, residues 174-649) (parent complex)
chain 1: PQLPHLQRSPPDGQSF
chain 2: TGVPAVSGALRELLEACRNGDVSRVKRLVDAANVNAKDMAGRKSSPLHFAAGFGRKDVVEHLLQMGANVHARDDGGLIPLHNACSFGHAEVVSLLLCQGADPNARDNWNYTPLHEAAIKGKIDVCIVLLQHGADPNIRNTDGKSALDLADPSAKAVLTGEYKKDELLEAARSGNEEKLMALLTPLNVNCHASDGRKSTPLHLAAGYNRVRIVQLLLQHGADVHAKDKGGLVPLHNACSYGHYEVTELLLKHGACVNAMDLWQFTPLHEAASKNRVEVCSLLLSHGADPTLVNCHGKSAVDMAPTPELRERLTYEFKGHSLLQAAREADLAKVKKTLALEIINFKQPQSHETALHCAVASLHPKRKQVTELLLRKGANVNEKNKDFMTPLHVAAERAHNDVMEVLHKHGAKMNALDTLGQTALHRAALAGHLQTCRLLLSYGSDPSIISLQGFTAAQMGNEAVQQILSESTPIRTSD

Variants of: B1
Test: proteomic peptide phage display deep mutational scan (ProP-PD DMS): M13 P8 16-mer library selected against immobilised GST-tagged bait for four days (rounds), NGS of the eluted pools per day and pseudo-replica; bait immobilised on MaxiSorp plates (10 µg), library pre-cleared on GST, 2 h binding at 4 °C, five washes; one round per day, days 1-4; value from days 2 and 3

Variant | screen value
chain 1 PQLPHLQRSPPDGVSF [chain 1 Q14V] | 0.00071 average fractional NGS count over selection days 2 and 3 (reads of this peptide / all reads for the bait, averaged over …
chain 1 PQLPHLQRSPPDGESF [chain 1 Q14E] | 0.000266 average fractional NGS count over selection days 2 and 3 (reads of this peptide / all reads for the bait, averaged over …
chain 1 PQLPHLQRSPPDGSSF [chain 1 Q14S] | 0.0015 average fractional NGS count over selection days 2 and 3 (reads of this peptide / all reads for the bait, averaged over …
chain 1 PQLPHLQRSPPDGMSF [chain 1 Q14M] | 0.00362 average fractional NGS count over selection days 2 and 3 (reads of this peptide / all reads for the bait, averaged over …
chain 1 PQLPHLQRSPPDGISF [chain 1 Q14I] | 0.000236 average fractional NGS count over selection days 2 and 3 (reads of this peptide / all reads for the bait, averaged over …
chain 1 PQLPHQQRSPPDGQSF [chain 1 L6Q] | 0.000145 average fractional NGS count over selection days 2 and 3 (reads of this peptide / all reads for the bait, averaged over …
chain 1 PQLPHPQRSPPDGQSF [chain 1 L6P] | 0.000739 average fractional NGS count over selection days 2 and 3 (reads of this peptide / all reads for the bait, averaged over …
chain 1 PQLPHTQRSPPDGQSF [chain 1 L6T] | 0.000389 average fractional NGS count over selection days 2 and 3 (reads of this peptide / all reads for the bait, averaged over …
chain 1 PQLPHLQRSPPDGQIF [chain 1 S15I] | 0.000286 average fractional NGS count over selection days 2 and 3 (reads of this peptide / all reads for the bait, averaged over …
chain 1 PQLPHLQRSPPDGQEF [chain 1 S15E] | 0.000326 average fractional NGS count over selection days 2 and 3 (reads of this peptide / all reads for the bait, averaged over …
chain 1 PQLPHLQRSPPDGQNF [chain 1 S15N] | 0.000592 average fractional NGS count over selection days 2 and 3 (reads of this peptide / all reads for the bait, averaged over …
chain 1 PQLPHLQRSPPDGQVF [chain 1 S15V] | 0.000578 average fractional NGS count over selection days 2 and 3 (reads of this peptide / all reads for the bait, averaged over …
chain 1 PQLPHLQRSPPDGQKF [chain 1 S15K] | 0.000127 average fractional NGS count over selection days 2 and 3 (reads of this peptide / all reads for the bait, averaged over …
chain 1 PQLPHLQRSPPDGQMF [chain 1 S15M] | 0.000289 average fractional NGS count over selection days 2 and 3 (reads of this peptide / all reads for the bait, averaged over …
chain 1 PQLPHLQRSPPDGQLF [chain 1 S15L] | 0.00151 average fractional NGS count over selection days 2 and 3 (reads of this peptide / all reads for the bait, averaged over …
chain 1 PQLPHLQRSYPDGQSF [chain 1 P10Y] | 0.000858 average fractional NGS count over selection days 2 and 3 (reads of this peptide / all reads for the bait, averaged over …
chain 1 PQLPHLQRSEPDGQSF [chain 1 P10E] | 0.00215 average fractional NGS count over selection days 2 and 3 (reads of this peptide / all reads for the bait, averaged over …
chain 1 PQLPHLQRSIPDGQSF [chain 1 P10I] | 0.00249 average fractional NGS count over selection days 2 and 3 (reads of this peptide / all reads for the bait, averaged over …
chain 1 PQLPHLQRSDPDGQSF [chain 1 P10D] | 0.000749 average fractional NGS count over selection days 2 and 3 (reads of this peptide / all reads for the bait, averaged over …
chain 1 PQLPHLQRSTPDGQSF [chain 1 P10T] | 0.00166 average fractional NGS count over selection days 2 and 3 (reads of this peptide / all reads for the bait, averaged over …
chain 1 PQLPHLQRSWPDGQSF [chain 1 P10W] | 0.000201 average fractional NGS count over selection days 2 and 3 (reads of this peptide / all reads for the bait, averaged over …

Variant | screen value
chain 1 PQLPHLQRSSPDGQSF [chain 1 P10S] | 0.000405 average fractional NGS count over selection days 2 and 3 (reads of this peptide / all reads for the bait, averaged over …
chain 1 PQLPHLQRSNPDGQSF [chain 1 P10N] | 0.00386 average fractional NGS count over selection days 2 and 3 (reads of this peptide / all reads for the bait, averaged over …
chain 1 PQLPHLQRSQPDGQSF [chain 1 P10Q] | 0.00105 average fractional NGS count over selection days 2 and 3 (reads of this peptide / all reads for the bait, averaged over …
chain 1 PQLPHLQRTPPDGQSF [chain 1 S9T] | 0.00132 average fractional NGS count over selection days 2 and 3 (reads of this peptide / all reads for the bait, averaged over …
chain 1 PQLPHLQRKPPDGQSF [chain 1 S9K] | 0.000447 average fractional NGS count over selection days 2 and 3 (reads of this peptide / all reads for the bait, averaged over …
chain 1 PQLPHLQRFPPDGQSF [chain 1 S9F] | 0.00032 average fractional NGS count over selection days 2 and 3 (reads of this peptide / all reads for the bait, averaged over …
chain 1 PQLPHLQRVPPDGQSF [chain 1 S9V] | 0.0149 average fractional NGS count over selection days 2 and 3 (reads of this peptide / all reads for the bait, averaged over …
chain 1 PQLPHLQRIPPDGQSF [chain 1 S9I] | 0.00144 average fractional NGS count over selection days 2 and 3 (reads of this peptide / all reads for the bait, averaged over …
chain 1 PQLPHLQREPPDGQSF [chain 1 S9E] | 0.00024 average fractional NGS count over selection days 2 and 3 (reads of this peptide / all reads for the bait, averaged over …
chain 1 PQLEHLQRSPPDGQSF [chain 1 P4E] | 0.000494 average fractional NGS count over selection days 2 and 3 (reads of this peptide / all reads for the bait, averaged over …
chain 1 PQLHHLQRSPPDGQSF [chain 1 P4H] | 0.00111 average fractional NGS count over selection days 2 and 3 (reads of this peptide / all reads for the bait, averaged over …
chain 1 PQLLHLQRSPPDGQSF [chain 1 P4L] | 0.000189 average fractional NGS count over selection days 2 and 3 (reads of this peptide / all reads for the bait, averaged over …
chain 1 PQLAHLQRSPPDGQSF [chain 1 P4A] | 0.00484 average fractional NGS count over selection days 2 and 3 (reads of this peptide / all reads for the bait, averaged over …
chain 1 PQLDHLQRSPPDGQSF [chain 1 P4D] | 0.000447 average fractional NGS count over selection days 2 and 3 (reads of this peptide / all reads for the bait, averaged over …
chain 1 PQLIHLQRSPPDGQSF [chain 1 P4I] | 0.000387 average fractional NGS count over selection days 2 and 3 (reads of this peptide / all reads for the bait, averaged over …
chain 1 PQLQHLQRSPPDGQSF [chain 1 P4Q] | 0.000351 average fractional NGS count over selection days 2 and 3 (reads of this peptide / all reads for the bait, averaged over …
chain 1 PSLPHLQRSPPDGQSF [chain 1 Q2S] | 0.00172 average fractional NGS count over selection days 2 and 3 (reads of this peptide / all reads for the bait, averaged over …
chain 1 PALPHLQRSPPDGQSF [chain 1 Q2A] | 0.000765 average fractional NGS count over selection days 2 and 3 (reads of this peptide / all reads for the bait, averaged over …
chain 1 PGLPHLQRSPPDGQSF [chain 1 Q2G] | 0.000233 average fractional NGS count over selection days 2 and 3 (reads of this peptide / all reads for the bait, averaged over …
chain 1 PKLPHLQRSPPDGQSF [chain 1 Q2K] | 0.000141 average fractional NGS count over selection days 2 and 3 (reads of this peptide / all reads for the bait, averaged over …
chain 1 PPLPHLQRSPPDGQSF [chain 1 Q2P] | 0.00147 average fractional NGS count over selection days 2 and 3 (reads of this peptide / all reads for the bait, averaged over …

Variant | screen value
chain 1 PNLPHLQRSPPDGQSF [chain 1 Q2N] | 0.000225 average fractional NGS count over selection days 2 and 3 (reads of this peptide / all reads for the bait, averaged over …
chain 1 PFLPHLQRSPPDGQSF [chain 1 Q2F] | 0.000172 average fractional NGS count over selection days 2 and 3 (reads of this peptide / all reads for the bait, averaged over …
chain 1 PQLPHLGRSPPDGQSF [chain 1 Q7G] | 0.00109 average fractional NGS count over selection days 2 and 3 (reads of this peptide / all reads for the bait, averaged over …
chain 1 PQLPHLERSPPDGQSF [chain 1 Q7E] | 0.000295 average fractional NGS count over selection days 2 and 3 (reads of this peptide / all reads for the bait, averaged over …
chain 1 PQLPHLWRSPPDGQSF [chain 1 Q7W] | 0.000561 average fractional NGS count over selection days 2 and 3 (reads of this peptide / all reads for the bait, averaged over …
chain 1 PQLPHLQRSPGDGQSF [chain 1 P11G] | 0.0132 average fractional NGS count over selection days 2 and 3 (reads of this peptide / all reads for the bait, averaged over …
chain 1 PQLPHLQRSPPDGQSG [chain 1 F16G] | 0.000376 average fractional NGS count over selection days 2 and 3 (reads of this peptide / all reads for the bait, averaged over …
chain 1 PQLPHLQRSPPDGQSL [chain 1 F16L] | 0.00209 average fractional NGS count over selection days 2 and 3 (reads of this peptide / all reads for the bait, averaged over …
chain 1 PQLPHLQRSPPDGQSY [chain 1 F16Y] | 0.011 average fractional NGS count over selection days 2 and 3 (reads of this peptide / all reads for the bait, averaged over …
chain 1 PQLPHLQRSPPDGQSN [chain 1 F16N] | 0.000118 average fractional NGS count over selection days 2 and 3 (reads of this peptide / all reads for the bait, averaged over …
chain 1 PQLPHLQRSPPDGQSW [chain 1 F16W] | 0.000272 average fractional NGS count over selection days 2 and 3 (reads of this peptide / all reads for the bait, averaged over …
chain 1 PQLPHLQRSPPDGQST [chain 1 F16T] | 0.000194 average fractional NGS count over selection days 2 and 3 (reads of this peptide / all reads for the bait, averaged over …
chain 1 PQLPHLQRSPPDGQSI [chain 1 F16I] | 0.000483 average fractional NGS count over selection days 2 and 3 (reads of this peptide / all reads for the bait, averaged over …
chain 1 PQLPHLQRSPPDGQSV [chain 1 F16V] | 0.00271 average fractional NGS count over selection days 2 and 3 (reads of this peptide / all reads for the bait, averaged over …
chain 1 PQLPHLQRSPPDGQSP [chain 1 F16P] | 0.0012 average fractional NGS count over selection days 2 and 3 (reads of this peptide / all reads for the bait, averaged over …
chain 1 PQAPHLQRSPPDGQSF [chain 1 L3A] | 0.000216 average fractional NGS count over selection days 2 and 3 (reads of this peptide / all reads for the bait, averaged over …
chain 1 PQTPHLQRSPPDGQSF [chain 1 L3T] | 0.000337 average fractional NGS count over selection days 2 and 3 (reads of this peptide / all reads for the bait, averaged over …
chain 1 PQEPHLQRSPPDGQSF [chain 1 L3E] | 0.00036 average fractional NGS count over selection days 2 and 3 (reads of this peptide / all reads for the bait, averaged over …
chain 1 PQSPHLQRSPPDGQSF [chain 1 L3S] | 0.000201 average fractional NGS count over selection days 2 and 3 (reads of this peptide / all reads for the bait, averaged over …
chain 1 PQIPHLQRSPPDGQSF [chain 1 L3I] | 0.000205 average fractional NGS count over selection days 2 and 3 (reads of this peptide / all reads for the bait, averaged over …
